This note sets out measurements from paper PMC6611726 (Nature, 2019).

Data set [1] has as its target DDB1 (UV-DDB subunit);DDB2 (UV-DDB subunit) (human;human) (UniProt Q16531+Q92466). Description: fluorescence polarisation. As to conditions: N at position 8 = THF abasic site. A general note: Fluorescence polarisation rises when a labelled molecule tumbles more slowly, as on binding a larger partner.
In data set [2] the target is DDB1 (human wild-type DDB1) (human, UniProt Q16531 1-1140). In words: cryo-EM structure.
DDB1 (human wild-type DDB1), sequence (Q16531 whole entry): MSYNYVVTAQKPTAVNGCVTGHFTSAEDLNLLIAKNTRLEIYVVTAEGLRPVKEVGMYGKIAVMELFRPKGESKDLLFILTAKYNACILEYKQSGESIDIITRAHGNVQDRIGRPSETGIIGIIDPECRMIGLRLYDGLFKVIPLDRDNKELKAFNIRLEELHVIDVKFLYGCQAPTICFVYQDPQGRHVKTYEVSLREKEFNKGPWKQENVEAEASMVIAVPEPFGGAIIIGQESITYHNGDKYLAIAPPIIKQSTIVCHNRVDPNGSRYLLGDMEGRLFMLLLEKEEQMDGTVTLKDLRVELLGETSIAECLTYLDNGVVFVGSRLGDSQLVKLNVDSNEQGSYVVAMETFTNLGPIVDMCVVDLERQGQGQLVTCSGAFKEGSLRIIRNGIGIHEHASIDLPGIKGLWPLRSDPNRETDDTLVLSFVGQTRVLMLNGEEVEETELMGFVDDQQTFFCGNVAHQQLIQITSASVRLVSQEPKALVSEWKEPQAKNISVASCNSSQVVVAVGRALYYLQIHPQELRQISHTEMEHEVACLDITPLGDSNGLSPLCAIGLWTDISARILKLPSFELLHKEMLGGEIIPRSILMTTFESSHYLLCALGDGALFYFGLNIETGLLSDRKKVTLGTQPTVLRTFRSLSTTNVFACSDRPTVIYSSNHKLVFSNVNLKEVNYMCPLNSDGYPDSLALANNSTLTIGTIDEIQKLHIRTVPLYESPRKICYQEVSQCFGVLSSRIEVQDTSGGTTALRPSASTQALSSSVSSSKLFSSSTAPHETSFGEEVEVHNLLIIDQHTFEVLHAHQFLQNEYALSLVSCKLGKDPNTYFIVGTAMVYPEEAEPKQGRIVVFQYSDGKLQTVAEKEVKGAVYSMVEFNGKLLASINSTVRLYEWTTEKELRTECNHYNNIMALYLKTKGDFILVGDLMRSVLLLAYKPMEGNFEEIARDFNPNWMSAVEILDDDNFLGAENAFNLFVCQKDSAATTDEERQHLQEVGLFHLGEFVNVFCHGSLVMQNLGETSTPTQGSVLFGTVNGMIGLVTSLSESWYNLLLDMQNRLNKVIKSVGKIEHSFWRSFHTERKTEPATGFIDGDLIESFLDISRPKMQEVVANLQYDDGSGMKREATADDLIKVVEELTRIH

DDB1 (UV-DDB subunit);DDB2 (UV-DDB subunit) (human;human), sequence (Q16531 whole entry, chain 1 of 2, one chain of several): as the sequence (Q16531 whole entry) above

Regarding “AATGAATNAAGCAGG / CCTGCTTTATTCATT [Cy5-15-bp-DNA-THF]”, in data set [1], the Kd (in general, a measure of binding affinity in units of concentration) was found to be 0.15 nM.

B1: DDB2 (human wild-type DDB2) (natural protein)
chain: MAPKKRPETQKTSEIVLRPRNKRSRSPLELEPEAKKLCAKGSGPSRRCDSDCLWVGLAGPQILPPCRSIVRTLHQHKLGRASWPSVQQGLQQSFLHTLDSYRILQKAAPFDRRATSLAWHPTHPSTVAVGSKGGDIMLWNFGIKDKPTFIKGIGAGGSITGLKFNPLNTNQFYASSMEGTTRLQDFKGNILRVFASSDTINIWFCSLDVSASSRMVVTGDNVGNVILLNMDGKELWNLRMHKKKVTHVALNPCCDWFLATASVDQTVKIWDLRQVRGKASFLYSLPHRHPVNAACFSPDGARLLTTDQKSEIRVYSASQWDCPLGLIPHPHRHFQHLTPIKAAWHPRYNLIVVGRYPDPNFKSCTPYELRTIDVFDGNSGKMMCQLYDPESSGISSLNEFNPMGDTLASAMGYHILIWSQEEARTRK
Consider B1, for which, in data set [2], the binding result is given as “binds”.
